Results reported in US20200247886A1 (ZLIP, published 2020).
Changes are numbered by the printed parent chain.

Columns and labels:
[1] = target: T1, human CD47 expressed on cells (CD47 expressing CHO cells, Jurkat, HL60, DLD1, Raji) (human, UniProt Q08722 19-292); test: IC50 as grade, SIRPα blocking on Raji cells; legend ++: >1 nM and <20 nM
T1 construct: also called CHO-CD47; IAP

[2] = target: T1, human CD47 expressed on cells (CD47 …); test: IC50 as grade, SIRPα blocking on Raji cells; legend +: >20 nM
[3] = target: T2, CD47 protein (construct not stated; SPR antigen, CD47 coated ELISA plates) (Homo sapiens (Human), UniProt Q08722 19-139, limits assumed); test: SPR (Biacore T100), affinity (nM) as grade; legend -: >40 nM
T2 construct: also called the antigen

[4] = target: T1, human CD47 expressed on cells (CD47 …); test: EC50 (nM) as grade, binding on Jurkat cells; legend +++: >0.05 nM and <1 nM
[5] = target: T1, human CD47 expressed on cells (CD47 …); test: EC50 (nM) as grade, binding on CHO-CD47 cells; legend +++: >0.05 nM and <1 nM
[6] = target: T3, CHO/mCD47-GFP (mouse, UniProt Q61735); test: flow cytometry on CHO cells expressing mouse CD47-GFP, binding percentage
T3 construct: on the cell surface; also called mouse CD47 expressed on CHO cells; CHO cell expressing mouse CD47
T3 sequence (receptor, looked up): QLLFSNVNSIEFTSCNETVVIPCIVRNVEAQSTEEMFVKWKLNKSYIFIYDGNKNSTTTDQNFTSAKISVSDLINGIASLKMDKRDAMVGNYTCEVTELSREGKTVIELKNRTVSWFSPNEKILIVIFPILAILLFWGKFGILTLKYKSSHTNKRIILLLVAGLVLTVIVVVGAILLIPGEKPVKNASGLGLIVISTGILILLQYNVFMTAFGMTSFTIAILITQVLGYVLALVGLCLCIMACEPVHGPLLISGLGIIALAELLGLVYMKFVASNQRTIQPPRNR

[7] = target: T1, human CD47 expressed on cells (CD47 …); test: flow cytometry on human red blood cells, donor 2, MFI; EC50 (nM) table beside the legend
[8] = target: T4, human CD47-Fc protein (Novoprotein, Cat#CG18) (human, UniProt Q08722 19-139); test: IC50 (nM) as grade, blocking of soluble CD47 binding to SIRPα-expressing CHO cells; legend ++: >1 nM and <10 nM
T4 construct: Bought protein; also called CD47-hFc; hCD47-hFc fusion protein; not shown: human IgG Fc of the bought fusion protein

[9] = target: T1, human CD47 expressed on cells (CD47 …); test: EC50 (nM) as grade, binding on CHO-CD47 cells; legend ++++: <0.05 nM
[10] = target: T2, CD47 protein (construct not stated; SPR …); test: SPR (Biacore T100), affinity (nM) as grade; legend +: >10 nM and <40 nM
[11] = target: T4, human CD47-Fc protein (Novoprotein, …); test: IC50 (nM) as grade, neutralizing ELISA, CD47-hFc on SIRPα coated plate; legend +++: >8 nM and <15 nM
[12] = target: T4, human CD47-Fc protein (Novoprotein, …); test: IC50 (nM) as grade, blocking of soluble CD47 binding to SIRPα-expressing CHO cells; legend +++: >0.05 nM and <1 nM
[13] = target: T1, human CD47 expressed on cells (CD47 …); test: EC50 (nM) as grade, binding on Jurkat cells; legend ++++: <0.05 nM
[14] = target: T4, human CD47-Fc protein (Novoprotein, …); test: IC50 (nM) as grade, neutralizing ELISA, CD47-hFc on SIRPα coated plate; legend ++: >15 nM and <20 nM
[15] = target: T1, human CD47 expressed on cells (CD47 …); test: EC50 (nM) as grade, flow cytometry, Fab on DLD1 cells; legend +: >60 nM
[16] = target: T1, human CD47 expressed on cells (CD47 …); test: EC50 (nM) as grade, flow cytometry, Fab on HL60 cells; legend +++: <1 nM
[17] = target: T5, biotin labelled polyhistidine tagged CD47 protein (Novoprotein, Cat#321) (human, UniProt Q08722 19-139, biotin labelled (site not stated)); test: IC50 (nM) as grade, Fab blocking biotinylated CD47 binding to SIRPα-CHO cells; legend ++: >10 nM and <65 nM
T5 construct: Bought protein; also called biotinylated CD47; biotinylated human CD47 protein; not shown: polyhistidine tag

[18] = target: T1, human CD47 expressed on cells (CD47 …); test: flow cytometry on DLD1 cells, IgG, frequency
[19] = target: T1, human CD47 expressed on cells (CD47 …); test: flow cytometry on CD47 expressing CHO cells, MFI (FL-4)
[20] = target: T1, human CD47 expressed on cells (CD47 …); test: EC50 (nM) as grade, binding on Jurkat cells; legend ++: >1 nM and <10 nM
[21] = target: T5, biotin labelled polyhistidine tagged …; test: flow cytometry blocking assay: antibody mixed with biotinylated human CD47 protein; blocked ligand SIRPα on cells; binding percentage

B1: H-ABU 5 (antibody, V domains shown)
VH: QVQLVQSGAEVKKPGASVKVSCKASGYTFTDNYINWVRQAPGQRLEWMGWIYLGSGNTKYNEKFKGRVTITRDTSASTAYMELSSLRSEDTAVYYCARREERGFAVWGQGTLVTVSS
VL: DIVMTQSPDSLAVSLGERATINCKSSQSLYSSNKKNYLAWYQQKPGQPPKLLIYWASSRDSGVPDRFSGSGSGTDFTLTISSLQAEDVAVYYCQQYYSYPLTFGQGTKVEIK
For B1, the IC50 [1] was 1 to 20 nM.

B2: H-ABU 3 (antibody, V domains shown)
VH: B1 VH with N32S, L53T, V106Y
VL: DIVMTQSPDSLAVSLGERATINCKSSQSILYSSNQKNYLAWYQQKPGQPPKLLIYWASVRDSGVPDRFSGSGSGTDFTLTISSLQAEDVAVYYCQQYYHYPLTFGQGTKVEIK
B2 was tested, and the IC50 [2] was > 20 nM.

B3: ABU1 (antibody, V domains shown)
VH: EVKLVESGGGLVQPGGSRKLSCAASGFTFSDYGMAWVRQAPGKGPECVAFISNLAKRIYYVDTVTGRFTISRENAKNTLYLEMSSLRSEDTAMYYCTRAYRYALDYWGQGTTLTVSS
VL: QIVLTQSPAIMSASPGEKVTMTCSASSSVSYMNWYQQKSGTSPKRWIYDTSKLASGVPARFSGSGSGTSYSLTISSMEAEDAATYYCQQWNSNPPTFGTGTKLELK
notes: Murine hybridoma monoclonal antibody
B3 was tested, and the Kd [3] was > 40 nM, the EC50 [4] was 0.05 to 1 nM and the EC50 [5] was 0.05 to 1 nM. For the same binder, the binding result [6] was “no binding (tested: about 0.4 ug/ml)”, the EC50 [7] was 0.12 nM and the IC50 [8] was 1 to 10 nM.

B4: ABU4 (antibody, V domains shown)
VH: QVQLQQSGPQLVRPGASVKISCKTSGYSFTNYWMQWVKQRPGQGLEWIGMIDPSDSESRLNQKFKDKATLTVDKSSSTAYMQLSSPTFEDSAVYYCARRGSPMITSFAYWGQGTLVTVSA
VL: DVQITQSPSFLAASPGETITINCRASKNIGKYLAWFQEKPGKTNKLLIYSGSTLQSGIPSRFSGSGSGTDFTLTISSLEPEDFAIYYCQQHNEYPYTFGGGTKLEIK
notes: as for B3
With B4 the EC50 [9] was < 0.05 nM, the “Affinity by SPR” value [10] was 10 to 40 nM and the EC50 [4] was 0.05 to 1 nM. For the same binder, the binding result [6] was “no binding (tested: about 0.4 ug/ml)”, the EC50 [7] was 0.34 nM and the IC50 [11] was 8 to 15 nM. For the same binder, the IC50 [12] was 0.05 to 1 nM.

B5: ABU3 (antibody, V domains shown)
VH: EVQLQQSGAELVKPGASVKLSCTASGFTIKDTYMHWVKQRPEQGLEWIGRIDPAKDNTKYDPKFQGKATITLDTSSNIAYLQLSSLTSEDTAVYFCARGHYGSSYVVYWGQGTLVTVSA
VL: NILMTQSPKSMSMSVGERVTLSCKASENVGTYVSWYQQKPDQSPKLLIYGASNRYTGVPDRFTGSGSATDFTLTISSVQAEDLADYHCGQSYSYPLTFGAGTKLELK
notes: as for B3
With B5 the EC50 [13] was < 0.05 nM, the EC50 [9] was < 0.05 nM and the “Affinity by SPR” value [10] was 10 to 40 nM. For the same binder, the binding result [6] was “no binding (tested: about 0.4 ug/ml)”, the EC50 [7] was 1.47 nM and the IC50 [14] was 15 to 20 nM. It also gave an IC50 [8] of 1 to 10 nM.

B6: ABU20 (Fab) (Fab, V domains shown)
VH: RGKVQESGPGLVKPSQSLSLTCSVTGYSITSGYYWNWIRQFPGNKLEWMGYINYDGSNNYNPSLKNRISITRDTSKNQFFLKLNSVTTEDTATYYCARGYYYGSSYGYWYFDVWGTGTTVTVSS
VL: DAVVTQESALTTSPGETVTLTCRSSTGAVTTNNYANWVQEKPDHLFTGLIGGTNNRAPGVPARFSGSLIGDKAALTITGAQTEDEAIYFCALWYSNHLVFGGGTKLTVL
notes: Phage-derived Fab: murine VL and VH fused to human CL and CH1
For B6, the EC50 [15] was > 60 nM, the EC50 [16] was < 1 nM and the IC50 [17] was 10 to 65 nM.

B7: Positive 2 (benchmark analogue antibody) (antibody, V domains shown)
VH: QVQLQQPGAELVKPGASVMMSCKASGYTFTNYNMHWVKQTPGQGLEWIGTIYPGNDDTSYNQKFKDKATLTADKSSSAAYMQLSSLTSEDSAVYYCARGGYRAMDYWGQTSVTVSS
VL: DVLMTQTPLSLPVSLGDQASISCRSSQSIVYSNGNTYLGWYLQKPGQSPKLLIYKVSNRFSGVPDRFSGSGSGTDFTLKISRVEAEDLGVYHCFQGSHVPYTFGGGTKVEIK
notes: also called Pos
For B7, the “EC50 (read off the curve)” value [18] was ~2 nM, the “EC50 (read off the curve)” value [19] was ~2 nM and the EC50 [9] was < 0.05 nM. For the same binder, the “Affinity by SPR” value [10] was 10 to 40 nM, the EC50 [20] was 1 to 10 nM and the binding result [6] was “no binding (tested: about 0.4 ug/ml)”. For the same binder, the IC50 [8] was 1 to 10 nM and the “IC50 (read off the curve)” value [21] was ~8 nM.
